Data taken from paper PMC5693252.
Read-outs that look alike come from different tables or passages of the source.

Experiments:
Assay in all cases: native MS
[1] = biological target: protein kinase A regulatory type II (RII) subunit (UniProt P12367)
AKAP79(297-427) = AKAP79(297-427) (UniProt P24588)
[2] = biological target: protein kinase A regulatory type II (RII) subunit (UniProt P12367); remark: listed apart in the source

UniProt P24588, sequence (P24588 297-427): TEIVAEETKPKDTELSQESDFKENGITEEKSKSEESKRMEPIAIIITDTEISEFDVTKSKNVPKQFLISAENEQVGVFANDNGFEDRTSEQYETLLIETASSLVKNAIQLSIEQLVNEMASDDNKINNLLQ

stoichiometry N (RII chains in the oligomer) [1]: 2
stoichiometry N (RII chains per AKAP79(297-427)) (AKAP79(297-427)): 2
stoichiometry N (RII chains in the oligomer) [2]: 2
Substance: protein kinase A regulatory type II (RII) subunit (from UniProt P12367 1-401) (natural protein)
